Test results as given in US20160159888A1 (CANCER RESEARCH TECHNOLOGY, published 2016).

Tests used:
[1] = target: T1, recombinant S100A4 protein (species not stated for the experiment); assay: SPR (BIAcore 2000), S100A4 amine-coupled to CM5 chip, mAb injected, 1:1 fit
T1 construct: also called immobilized S100A4; oligomeric S100A4
Description: All SPR analyses were conducted on a BIAcore 2000 system (GE-Healthcare Life Sciences, Upsala, Sweden). The experiments were performed at 25° C. using HBST/Ca (10 mM HEPES, 150 mM NaCl, 0.005% Tween® and 50 μM CaCl2) as running buffer. The S100A4 protein was immobilized on a sensor chip CM5 (GE-Healthcare, BR-1000-12) using the amine coupling kit from GE Healthcare (BR-1000-50). The flow rate was set to 5 μl/min. The flow cells were activated individually by injecting 35 μl freshly mixed 0.4 M EDC ((N-(3-dimethylaminopropyl)-N′-ethylcarbodiimide hydrochloride) in 0.05 M NHS (N-hydroxysuccinimide) solution. Then 5 μg/ml S100A4 protein diluted in 10 mM acetic acid, pH 5.0 was injected for 1 to 10 minutes until the desired level of immobilization was reached (about 400 to 800 RU). The remaining active groups were deactivated by injecting 35 μl 1 M ethanolamine (pH 8.5). All experiment included a reference surface which was prepared by activating and deactivating of the surface of flow cell 1 (FC1). The blank surface reference was used to correct for bulk effects and nonspecific binding. The channel referencing was done automatically by the BIACORE 2000 control software.
The injections were performed using the KINJECT mode (injection10 min, dissociation 20-30 min). The flow rate during injection and regeneration was kept at 50 μl/min. […]

mouse S100A4 protein = target: T2, mouse S100A4 protein (mouse, UniProt P07091 2-101, limits assumed); assay: ELISA screen of hybridoma clones on mouse S100A4
T2 construct: also called murine S100A4; recombinant mouse S100A4 protein
T2 sequence (P07091 2-101 limits assumed, one chain of several): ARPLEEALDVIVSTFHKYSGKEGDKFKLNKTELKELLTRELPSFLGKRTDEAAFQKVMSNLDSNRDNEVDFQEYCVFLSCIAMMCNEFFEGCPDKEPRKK

[2] = target: T3, S100A4 peptide 7 (RDNEVDFQEYCV, 12-mer: 66-77) (human); assay: peptide ELISA (FIG. 4A)
T3 construct: also called P7
T3 peptide: RDNEVDFQEYCV

[3] = target: T4, S100A4 peptide 8 (FLSCIAMMCNEF, 12-mer: 78-89) (human); assay: peptide ELISA (FIG. 4A)
T4 construct: also called P8
T4 peptide: FLSCIAMMCNEF

pep 5 = target: T5, pep 5; assay: peptide ELISA, absorbance 450 nm (Pep-BG)
T5 construct: also called S100A4 peptide 5; #5 (11-mer: 43-53)
T5 chain: PSFLGKRTDEA

pep 1 = target: T6, pep 1; assay: peptide ELISA, absorbance 450 nm (Pep-BG)
T6 construct: also called S100A4 peptide 1; #1 (10-mer: 1-10)
T6 chain: MACPLEKALD

[4] = target: T7, S100A4 peptide 9 (FEGFPDKQPRKK, 12-mer: 90-101) (human); assay: peptide ELISA, absorbance 450 nm (Pep-BG)
T7 construct: also called P9; C-terminal peptide
T7 peptide: FEGFPDKQPRKK

pep 2 = target: T8, pep 2; assay: peptide ELISA, absorbance 450 nm (Pep-BG)
T8 construct: also called S100A4 peptide 2; #2 (10-mer: 11-20)
T8 chain: VMVSTFHKYS

pep 4 = target: T9, pep 4; assay: peptide ELISA, absorbance 450 nm (Pep-BG)
T9 construct: also called S100A4 peptide 4; #4 (11-mer: 32-42)
T9 chain: SELKELLTREL

pep 6 = target: T10, pep 6; assay: peptide ELISA, absorbance 450 nm (Pep-BG)
T10 construct: also called S100A4 peptide 6; #6 (12-mer: 54-65)
T10 chain: AFQKLMSNLDSN

pep 3 = target: T11, pep 3; assay: peptide ELISA, absorbance 450 nm (Pep-BG)
T11 construct: also called S100A4 peptide 3; #3 (11-mer: 21-31)
T11 chain: GKEGDKFKLNK

h S100A2 = target: T12, h S100A2 (human, UniProt P29034); assay: Western blot of purified S100 proteins on PVDF membrane
T12 construct: purified protein on a PVDF membrane; one of the 'other S100 family members'; its amido black loading band is very faint in the scan; also called human S100A2
T12 sequence (P29034 whole entry, one chain of several): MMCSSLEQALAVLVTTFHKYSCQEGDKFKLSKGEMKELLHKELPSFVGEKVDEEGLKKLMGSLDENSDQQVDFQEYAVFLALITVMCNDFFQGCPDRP

h S100B = target: T13, h S100B (human, UniProt P04271); assay: as above
T13 construct: purified protein on a PVDF membrane; one of the 'other S100 family members'; also called human S100B
T13 sequence (looked up): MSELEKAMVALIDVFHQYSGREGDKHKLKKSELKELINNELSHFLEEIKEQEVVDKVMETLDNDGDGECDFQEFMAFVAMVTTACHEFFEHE

h S100A12 = target: T14, h S100A12 (human, UniProt P80511); assay: as above
T14 construct: purified protein on a PVDF membrane; one of the 'other S100 family members'; no amido black loading band is visible for this lane in the scan; also called human S100A12
T14 sequence (looked up): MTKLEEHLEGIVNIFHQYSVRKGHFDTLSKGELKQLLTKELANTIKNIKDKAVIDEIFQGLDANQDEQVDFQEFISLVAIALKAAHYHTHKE

h S100A5 = target: T15, h S100A5 (human, UniProt P33763); assay: as above
T15 construct: purified protein on a PVDF membrane; one of the 'other S100 family members'; also called human S100A5
T15 sequence (looked up): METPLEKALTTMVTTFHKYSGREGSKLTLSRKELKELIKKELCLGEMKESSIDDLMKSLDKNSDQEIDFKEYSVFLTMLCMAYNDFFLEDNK

h S100A1 = target: T16, h S100A1 (human, UniProt P23297); assay: as above
T16 construct: purified protein on a PVDF membrane; one of the 'other S100 family members'; also called human S100A1
T16 sequence (looked up): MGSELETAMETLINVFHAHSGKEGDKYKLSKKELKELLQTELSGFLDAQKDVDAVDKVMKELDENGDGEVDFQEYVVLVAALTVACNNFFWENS

h S100A9 = target: T17, h S100A9 (human, UniProt P06702); assay: as above
T17 construct: purified protein on a PVDF membrane; one of the 'other S100 family members'; also called human S100A9
T17 sequence (looked up): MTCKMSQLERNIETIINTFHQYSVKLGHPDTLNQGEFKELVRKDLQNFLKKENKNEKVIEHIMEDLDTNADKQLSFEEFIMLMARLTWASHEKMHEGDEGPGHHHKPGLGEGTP

human S100A4 protein = target: T18, human S100A4 protein (human, UniProt P26447 2-101, limits assumed); assay: Western blot of recombinant proteins and of cell extracts (FIG. 1)
T18 construct: Recombinant protein on blots and endogenous protein in extracts of human cell lines; also called human S100A4 recombinant protein
T18 sequence (P26447 2-101 limits assumed, one chain of several): as the sequence (P07091 2-101 limits assumed, one chain of several) above, with R2C, E6K, I11M, T31S, V57L, C92F, E96Q counted along it

T1 sequence (P07091 whole entry): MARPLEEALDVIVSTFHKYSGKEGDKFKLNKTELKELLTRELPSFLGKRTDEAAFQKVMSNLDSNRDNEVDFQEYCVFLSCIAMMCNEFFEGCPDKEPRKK

B1: anti-S100A4 mouse monoclonal antibody, clone 6B12 (antibody, V domains shown)
VH: DVQLQESGPGLVKPSQSLSLTCSVTGDSFTNDYYWNWIRQFPGSKLEWMGHIGYGGNINYNPSLKNRISITRDTSKNQFFLRLTSVTTEDTATYYCTRESFYDGYPFDYWGQGTLVTVSA
VL: DIQMTQTTSSLSASLGDRVTISCRASQDIRNYLNWYQQRPGGTLKLLIYYTSRLHSGVPSRFSGSGSGTDYSLTISNLEQEDIATYFCQQGNSLPRTFGGGTKLEIK
notes: constant regions are not; also called 6B12 mAb; mAb 6B12
Kd [1]: 0.114 nM
kon [1]: 287000 M⁻¹ s⁻¹
binding result (mouse S100A4 protein): binds
binding result [2]: binds
binding result [3]: binds
binding result (pep 5): no binding
binding result (pep 1): no binding
binding result [4]: no binding
binding result (pep 2): no binding
binding result (pep 4): no binding
binding result (pep 6): no binding
binding result (pep 3): no binding
binding result (h S100A2): no binding
binding result (h S100B): no binding
binding result (h S100A12): no binding
binding result (h S100A5): no binding
binding result (h S100A1): no binding
binding result (h S100A9): no binding
binding result (human S100A4 protein): binds
